Data from patent US11306331B2, “Processes for the production of hydroxycinnamic acids using polypeptides having tyrosine ammonia lyase activity” (CysBio ApS, priority 2014, dated 2022).

Tested on: L. lactis NZ9000ΔldhΔldhB
Test: Specific pHCA and CA productivity of L. lactis strains expressing TAL/PAL enzymes in CDM
Type: cell-based, Lactococcus lactis
Conditions: CDM
Description: The synthetic RsXALI (protein GI 129592) and RmXALI (protein GI 126464011) genes, codon optimized for Lactococcus lactis (GeneArt), were cloned into the nisin inducible expression vector pNZ8048 (Kuipers et al., 1998) as follows: RsXALI (SEQ ID NO: 56) and RmXALI (SEQ ID NO: 57) genes and the vector were PCR amplified using the primers listed in Table 7, and were assembled in a single-tube isothermal reaction using the Gibson Assembly Master Mix (New England Biolabs). Reaction products were ethanol-precipitated and suspended in double distilled water before transformation into L. lactis by electroporation as described by Holo and Nes (1995). The synthetic genes encoding SeSam8, R_XAL, HaXAL1 and FjXAL described in a previous example above were amplified by PCR using the primer pairs listed in Table 1, digested with specific restriction enzymes, and cloned in-between the NcoI and XbaI restriction sites of pNZ8048. The plasmids were obtained and maintained in L. lactis NZ9000 (Kuipers et al., 1998) and the gene sequences of the different constructs were verified by sequencing.
To assess pHCA production, TAL-expression vectors were transformed into a strain derived from NZ9000, but with deletion of the genes Idh and dhB (NZ9000ΔldhΔldhB). A control strain was also constructed by transformation of NZ9000ΔldhΔldhB with empty expression vector pNZ8048.
For molecular biology procedures, L. lactis strains were cultivated as batch cultures (flasks) without aeration in M17 medium (Difco™, USA) supplemented with 0.5% glucose (w/v) at 30° C. To assess pHCA production, strains were grown as static cultures in chemically defined medium (CDM; Poolman and Konings, 1988) containing 1% glucose (wt/vol) without pH control (initial pH 6.5 or 7.0) and supplemented with 1.7 or 3.7 mM L-tyrosine. Plasmid selection was achieved by addition of 5 μg mL^−1 chloramphenicol to the growth medium. Growth was monitored by measuring OD600. For heterologous expression of cloned tyrosine ammonia lyases, L. lactis strains were grown in CDM and nisin (1.5 μg L^−1) was added at an OD600 of 0.3-0.4. Samples (1 mL) of cultures were collected at different points during growth; centrifuged (16,100×g, 10 min, 4° C.) and the supernatants stored at −20° C. until analysis by HPLC as described in a previous example above. […] The first six columns are results from media containing 1.7 mM tyrosine. The seventh and ninth columns represent samples from strains grown in media containing 3.7 mM tyrosine, and the eighth and ninth columns are data from media with 68.5 mM 3-(N-morpholino)propanesulfonic acid (MOPS) and initial pH adjusted to 7.0 rather than 6.5.

B1: RmXALLI: RmXAL expressed from a synthetic gene codon optimized for Lactococcus lactis (SEQ ID NO: 57) (protein)
chain: MAPSVDSIATSVANSLSNGLHAAAAANGGDVHKKTAGAGSLLPTTETTQLDIVERILADAGATDQIKLDGYTLTLGDVVGAARRGRSVKVADSPHIREKIDASVEFLRTQLDNSVYGVTTGFGGSADTRTEDAISLQKALLEHQLCGVLPTSMDGFALGRGLENSLPLEVVRGAMTIRVNSLTRGHSAVRIVVLEALTNFLNHGITPIVPLRGTISASGDLSPLSYIAASITGHPDSKVHVDGKIMSAQEAIALKGLQPVVLGPKEGLGLVNGTAVSASMATLALTDAHVLSLLAQALTALTVEAMVGHAGSFHPFLHDVTRPHPTQIEVARNIRTLLEGSKYAVHHETEVKVKDDEGILRQDRYPLRCSPQWLGPLVSDMIHAHAVLSLEAGQSTTDNPLIDLENKMTHHGGAFMASSVGNTMEKTRLAVALMGKVSFTQLTEMLNAGMNRALPSCLAAEDPSLSYHCKGLDIAAAAYTSELGHLANPVSTHVQPAEMGNQAINSLALISARRTAEANDVLSLLLATHLYCVLQAVDLRAMEFEHTKAFEPMVTELLKQHFGALATAEVEDKVRKSIYKRLQQNNSYDLEQRWHDTFSVATGAVVEALAGQEVSLASLNAWKVACAEKAIALTRSVRDSFWAAPSSSSPALKYLSPRTRVLYSFVREEVGVKARRGDVYLGKQEVTIGTNVSRIYEAIKSGCIAPVLVKMMA
modifications: RmXal coding sequence (codon optimized for Lactococcus lactis)
- production of CA: the only enzyme resulting in production of CA
